Source: patent US20110123544A1 (published 2011)

Assays:
recombinant murine IL-12 = molecular target: T1, recombinant murine IL-12 (mouse, UniProt P43432 23-335; P43431 23-215); assay: neutralisation bioassay with purified murine IL-12 (2D6 cell proliferation)
T1 construct: R&D Systems Cat. No. 419-ML in the BIAcore test; 'purified murine IL-12' in the bioassays; also called mouse IL-12; rmIL12
T1 sequence (looked up) 1: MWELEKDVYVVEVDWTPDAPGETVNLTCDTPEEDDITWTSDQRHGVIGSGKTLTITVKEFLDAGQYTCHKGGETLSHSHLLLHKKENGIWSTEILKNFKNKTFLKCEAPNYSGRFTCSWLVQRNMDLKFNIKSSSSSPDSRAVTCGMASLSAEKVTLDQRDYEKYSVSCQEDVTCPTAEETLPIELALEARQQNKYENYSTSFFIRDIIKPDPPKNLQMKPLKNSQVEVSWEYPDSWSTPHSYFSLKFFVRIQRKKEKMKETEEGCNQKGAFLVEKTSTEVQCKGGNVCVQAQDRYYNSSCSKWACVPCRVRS
T1 sequence (looked up) 2: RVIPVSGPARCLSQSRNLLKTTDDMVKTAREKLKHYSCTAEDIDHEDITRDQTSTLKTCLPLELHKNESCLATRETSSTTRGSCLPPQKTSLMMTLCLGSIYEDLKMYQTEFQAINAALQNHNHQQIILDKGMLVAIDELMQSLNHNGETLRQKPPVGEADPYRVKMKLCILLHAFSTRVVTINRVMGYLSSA
Procedure: 2D6 cells were washed once and resuspended in RPMI complete medium containinγ βME to a cell density of 1×10⁵ cells/ml. […] The culture contents were harvested and counted by liquid scintillation counting. All samples were assayed in duplicate.

recombinant rhesus IL-12 = molecular target: T2, recombinant rhesus IL-12 (rhesus monkey, UniProt P48095 23-328; P48091 23-219); assay: neutralisation bioassays with purified rhesus IL-12
T2 construct: Obtained from Emory University School of Medicine
T2 sequence (looked up) 1: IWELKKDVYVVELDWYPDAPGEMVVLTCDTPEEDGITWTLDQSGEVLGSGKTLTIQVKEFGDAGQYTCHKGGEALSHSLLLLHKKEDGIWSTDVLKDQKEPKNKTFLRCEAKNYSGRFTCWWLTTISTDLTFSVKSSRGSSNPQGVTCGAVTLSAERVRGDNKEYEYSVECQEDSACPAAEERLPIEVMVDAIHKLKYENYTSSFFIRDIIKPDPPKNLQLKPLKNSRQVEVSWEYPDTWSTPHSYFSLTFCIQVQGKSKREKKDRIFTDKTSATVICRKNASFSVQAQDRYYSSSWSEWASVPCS
T2 sequence (looked up) 2: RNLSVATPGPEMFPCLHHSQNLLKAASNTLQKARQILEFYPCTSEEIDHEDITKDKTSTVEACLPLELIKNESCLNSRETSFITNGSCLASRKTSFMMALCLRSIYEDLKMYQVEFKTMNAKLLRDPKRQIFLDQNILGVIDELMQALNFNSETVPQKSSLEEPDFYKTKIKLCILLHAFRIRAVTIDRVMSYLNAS

B1: J695 human anti-human IL-12 antibody (antibody, V domains shown)
VH: QVQLVESGGGVVQPGRSLRLSCAASGFTFSSYGMHWVRQAPGKGLEWVAFIRYDGSNKYYADSVKGRFTISRDNSKNTLYLQMNSLRAEDTAVYYCKTHGSHDNWGQGTMVTVSS
VL: QSVLTQPPSVSGAPGQRVTISCSGSRSNIGSNTVKWYQQLPGTAPKLLIYYNDQRPSGVPDRFSGSKSGTSASLAITGLQAEDEADYYCQSYDRYTHPALLFGTGTKVTVLG
notes: tested as human IgG1 with lambda light chain (detected with anti-human lambda); Made in CHO or COS cells; also called Y61-L94Y-L50Y IgG
Recombinant murine IL-12
  binding result: no binding
Recombinant rhesus IL-12
  binding result: binds
